Biological target: FKBP_C-term (FKBP fused at its C-terminal end to the C-terminal NanoLuc fragment N2)
Experiment: split reporter

Substance “FRB_N-term (FRB fused at its C-terminal end to the N-terminal NanoLuc fragment N1)” has a luminescence without rapamycin as percent of that with rapamycin of 3%.

Reference: paper doi:10.1101/2020.04.09.034520
